In US20260055369A1, “METHOD FOR GENERATING CELLS OF THE T CELL LINEAGE WITH ENGINEERING BROADLY REACTIVE HUMAN NOTCH LIGAND” (H. Lee Moffitt Cancer Center and Research Institute, Inc., priority 2022, published 2026):

Assays:
Notch1 (EGF6-13) = experiment: SPR determination of equilibrium dissociation constants; assay type: binding, human
Description: Equilibrium dissociation constants were determined by surface plasmon resonance using a Biacore T200 instrument (GE Healthcare). Approximately 100 resonance units (RU) of biotinylated Notch extracellular fragments (Notch1 (EGF6-13), Notch2 (EGF6-13), Notch3 (EGF5-12), Notch4 (7-12), and mouse Notch1 (EGF6-13)) were immobilized on individual flow cells at 5 μl/min using a streptavidin-coated sensor chip (Series S Sensor chip SA, GE Healthcare). Three-fold serial dilutions of recombinant DLL4 proteins (N-EGF5) starting at 50 μM (WT DLL4), 18 μM (DLL4.v2), and 6 μM (DLL4.v1 and Delta^MAX) were flowed over the chip at 25° C. in SPR buffer (20 mM HEPES pH 7.4, 150 mM NaCl, 1 mM calcium chloride, 0.1% BSA supplemented with 0.005% surfactant P20). Association (“on-rate”) and dissociation (“off-rate”) phases were performed at 10 μl/min for 120 seconds and 300 seconds, respectively. The sensor chip was regenerated after each injection with 30-second washes of 2.25M Magnesium Chloride containing 25% Ethylene Glycol at 50 μL/min. Data collection rate was performed at 10 Hz, and curves were reference-subtracted from a flow cell containing 100 RU of a negative control non-related protein (biotinylated mouse RNF43 PA domain). The maximum RU for each experiment was normalized to a value of 100% and plotted as a function of concentration using Prism 9 software (GraphPad). Steady-state binding and kinetic curves were fitted using the Biacore T200 evaluation software to a 1:1 Langmuir model to determine the KD values.

Notch1 [1] = experiment: Notch activation in co-culture format with HEK293T (U2OS luciferase reporter); assay type: cell-based, human; conditions: HEK293T expressing full-length ligand, 1:1 ratio
Notch1, sequence (P46531 19-1664 limits assumed): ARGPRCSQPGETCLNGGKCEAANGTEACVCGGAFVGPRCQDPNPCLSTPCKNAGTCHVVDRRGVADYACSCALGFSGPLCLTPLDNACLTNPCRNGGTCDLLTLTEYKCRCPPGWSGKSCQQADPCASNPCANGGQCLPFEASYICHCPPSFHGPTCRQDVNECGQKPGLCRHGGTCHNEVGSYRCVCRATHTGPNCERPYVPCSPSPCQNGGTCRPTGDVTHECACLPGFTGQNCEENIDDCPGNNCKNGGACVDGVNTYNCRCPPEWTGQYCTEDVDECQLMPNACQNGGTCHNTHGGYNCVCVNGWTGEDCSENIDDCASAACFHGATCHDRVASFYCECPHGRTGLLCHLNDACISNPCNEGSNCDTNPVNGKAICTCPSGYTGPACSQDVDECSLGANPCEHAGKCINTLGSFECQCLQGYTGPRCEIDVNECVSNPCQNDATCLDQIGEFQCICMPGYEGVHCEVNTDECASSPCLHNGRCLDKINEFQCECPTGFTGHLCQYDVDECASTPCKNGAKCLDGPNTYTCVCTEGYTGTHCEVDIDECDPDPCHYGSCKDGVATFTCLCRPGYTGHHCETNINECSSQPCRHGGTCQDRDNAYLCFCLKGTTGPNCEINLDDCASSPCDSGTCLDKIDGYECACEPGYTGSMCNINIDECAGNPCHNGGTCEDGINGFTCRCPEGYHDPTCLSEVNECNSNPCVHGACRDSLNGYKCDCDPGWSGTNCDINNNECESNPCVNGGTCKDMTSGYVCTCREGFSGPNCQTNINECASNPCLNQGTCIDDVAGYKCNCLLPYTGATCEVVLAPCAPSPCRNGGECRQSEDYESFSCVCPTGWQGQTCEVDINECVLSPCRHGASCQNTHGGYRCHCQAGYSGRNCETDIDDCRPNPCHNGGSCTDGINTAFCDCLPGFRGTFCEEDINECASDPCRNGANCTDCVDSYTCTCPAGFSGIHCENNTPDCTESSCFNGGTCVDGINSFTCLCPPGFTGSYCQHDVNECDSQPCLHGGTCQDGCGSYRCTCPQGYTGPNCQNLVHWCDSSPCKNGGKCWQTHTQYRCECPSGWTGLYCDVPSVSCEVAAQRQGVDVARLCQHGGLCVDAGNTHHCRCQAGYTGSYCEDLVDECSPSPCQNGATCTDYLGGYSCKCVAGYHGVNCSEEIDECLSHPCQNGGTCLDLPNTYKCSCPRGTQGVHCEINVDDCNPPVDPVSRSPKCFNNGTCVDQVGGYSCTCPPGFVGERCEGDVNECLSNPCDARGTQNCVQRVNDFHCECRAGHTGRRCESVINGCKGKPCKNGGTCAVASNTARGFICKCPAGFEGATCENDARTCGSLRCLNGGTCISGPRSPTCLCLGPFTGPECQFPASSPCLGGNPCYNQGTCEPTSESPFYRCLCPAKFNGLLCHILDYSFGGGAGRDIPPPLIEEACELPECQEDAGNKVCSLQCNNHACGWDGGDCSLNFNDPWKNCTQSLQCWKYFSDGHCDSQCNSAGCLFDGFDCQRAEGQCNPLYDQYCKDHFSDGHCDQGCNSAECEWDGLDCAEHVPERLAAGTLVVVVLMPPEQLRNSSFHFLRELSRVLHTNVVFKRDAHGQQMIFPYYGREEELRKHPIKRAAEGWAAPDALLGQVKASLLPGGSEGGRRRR
Notch1, sequence (P46531 1665-1756 limits assumed): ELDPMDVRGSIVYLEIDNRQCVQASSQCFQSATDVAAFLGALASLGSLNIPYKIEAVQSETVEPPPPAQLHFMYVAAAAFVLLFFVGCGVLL
Description: (§1) On day one, U2OS reporter cells (signal receiver cells) were detached with trypsin-EDTA, washed with DPBS, and 5×10^5 cells were added to 6-well plates (Falcon) for transfection with luciferase reporter vectors. On day two, U2OS cells were transfected as described above. On day three, signal receiver cells were detached with trypsin-EDTA, and 100 μL of DMEM media containing 20,000 cells were added to tissue culture 96-well plates (Coastar). In parallel, HEK293T-expressing WT DLL4 or Delta^MAX were detached with trypsin-EDTA, counted manually, and dilutions prepared such that 100 μL of DMEM containing 20,000 signal sender cells were added over signal receiver cells (cell ratio 1:1). Doxycycline (Sigma) at 2 μg/mL was used to induce Notch-Gal4 expression. On day four, luciferase firefly and Renilla signals were determined with Dual-Glo luciferase assay system (Promega) using a GloMax luminometer (Promega). A luminescence ratio firefly:Renilla was determined for every well and normalized to the signal of a well containing U2OS reporter cells and HEK293T non-expressing DLL4 ligands. Notch activation is represented as the mean fold-change over the control±s.d. of three independent biological replicates.

Notch2 [2] = experiment: as above; assay type: cell-based, human; conditions: HEK293T expressing full-length ligand, 1:1 ratio; P=0.037
Description: as §1
Target sequence in this assay (Q04721 221-530 limits assumed): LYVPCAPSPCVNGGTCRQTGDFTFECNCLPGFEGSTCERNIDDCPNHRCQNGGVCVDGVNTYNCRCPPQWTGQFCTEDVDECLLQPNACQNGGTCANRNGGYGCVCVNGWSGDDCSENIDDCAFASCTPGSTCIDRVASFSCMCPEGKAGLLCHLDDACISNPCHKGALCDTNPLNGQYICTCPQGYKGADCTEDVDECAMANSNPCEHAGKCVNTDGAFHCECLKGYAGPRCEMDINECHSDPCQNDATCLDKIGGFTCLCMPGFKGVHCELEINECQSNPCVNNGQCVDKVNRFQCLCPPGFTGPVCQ

Notch3 [3] = experiment: as above; assay type: cell-based, human; conditions: HEK293T expressing full-length ligand, 1:1 ratio
Notch3, sequence (Q9UM47 197-505 limits assumed): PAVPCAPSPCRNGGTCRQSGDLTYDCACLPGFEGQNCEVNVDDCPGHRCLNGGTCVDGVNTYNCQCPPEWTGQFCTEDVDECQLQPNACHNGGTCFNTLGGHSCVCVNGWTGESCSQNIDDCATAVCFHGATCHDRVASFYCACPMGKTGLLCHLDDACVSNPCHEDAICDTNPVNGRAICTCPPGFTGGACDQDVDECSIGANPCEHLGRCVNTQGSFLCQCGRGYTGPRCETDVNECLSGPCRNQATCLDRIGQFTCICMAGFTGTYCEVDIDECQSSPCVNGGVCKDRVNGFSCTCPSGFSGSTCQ
Description: as §1

Notch1 [4] = experiment: Notch inhibition, U2OS luciferase reporter on WT DLL4 coated plates; assay type: cell-based, human; conditions: plates coated with 50 nM WT DLL4, 10-fold dilutions from 3,000 nM
Description: (§2) For U2OS cells, on day one, 5×10^5 cells were plated in 6-well tissue culture plates. On day two, U2OS cells were transfected as described above. On day three, 96-well plates (Coastar) were coated with streptavidin and biotinylated WT DLL4 at 50 nM as described above. Next, U2OS reporter cells were detached with trypsin-EDTA and diluted at 200,000 cells/mL in DMEM media. Ten-fold serial dilutions of soluble DLL4 variants starting at 6,000 nM were prepared in DPBS and used to pre-block reports cells following the same protocol described above. Two-hundred microliters of inhibition reactions were added to 96-well plates pre-coated with biotinylated WT DLL4 ligand at 50 nM, and assay plates incubated for 24 hours at 37° C. and 5% CO2. On day fourth, luciferase signals were measured with Dual-Glo luciferase assay system (Promega) using a GloMax luminometer (Promega). Doxycycline at 2 μg/mL was maintained to […]. A ratio between firefly and Renilla luciferase was calculated, and Notch activation normalized to wells where inhibitors were non-added. The data represent fold-change of Notch activation as percentage, relative to Notch activation in the absence of inhibitors±s.d. of three independent biological replicates.

Notch2 [5] = experiment: as above; assay type: cell-based, human; conditions: plates coated with 50 nM WT DLL4, 10-fold dilutions from 3,000 nM
Description: as §2

Notch3 [6] = experiment: as above; assay type: cell-based, human; conditions: plates coated with 50 nM WT DLL4, 10-fold dilutions from 3,000 nM
Description: as §2

Notch1 [7] = biological target: T1, Notch1 (Homo sapiens, UniProt P46531); experiment: Immunoblot of cleaved Notch1 in CD8+ T cells; assay type: cell-based; conditions: CD8+ T cells after 96 hours with K32 cells
T1 construct: endogenous in cells; host or cells: primary human CD8+ T cells from PBMC
Description: (§3) For detection of Notch activation in CD8^+ T cells, following co-culture with K32 cell lines, CD8^+ T cells were positively enriched by Magnisort Human CD8^+ T cell positive selection Kit (Invitrogen). Nuclear fraction was isolated using NE-PER Nuclear and Cytoplasmic extraction kit (ThermoFisher). Equal protein amounts of nuclear cell lysates were run on 4-20% gradient Tris-glycine gels (Novex-Invitrogen), transferred to PVDF membranes using an iBlot Gel Transfer Device (ThermoFisher), and immunoblotted with antibodies anti-cleaved Notch1 (Val1744 rabbit mAb, Cell Signaling Technology, 1:1,000), anti-Notch2 (D76A6 rabbit mAb, Cell Signaling Technology, 1:1,000), and anti-β Actin (mouse mAb, Sigma, 1:20,000). Secondary antibodies anti-IgG (anti-rabbit or anti-mouse, GE Healthcare, 1:5,000) conjugated to horseradish peroxidase (HRP) were used for detection of proteins using ECL Western Blot Substrate Reagent (Thermo Fisher Scientific). Images were acquired using a Chemidoc Imaging System and analyzed with Image-Lab software (Bio-Rad).

Notch2 [8] = biological target: T2, Notch2 (Homo sapiens, UniProt Q04721); experiment: Immunoblot of cleaved Notch2 in CD8+ T cells; assay type: cell-based; conditions: CD8+ T cells after 96 hours with K32 cells
T2 construct: endogenous in cells; host or cells: primary human CD8+ T cells from PBMC
T2 sequence (Q04721 26-2471): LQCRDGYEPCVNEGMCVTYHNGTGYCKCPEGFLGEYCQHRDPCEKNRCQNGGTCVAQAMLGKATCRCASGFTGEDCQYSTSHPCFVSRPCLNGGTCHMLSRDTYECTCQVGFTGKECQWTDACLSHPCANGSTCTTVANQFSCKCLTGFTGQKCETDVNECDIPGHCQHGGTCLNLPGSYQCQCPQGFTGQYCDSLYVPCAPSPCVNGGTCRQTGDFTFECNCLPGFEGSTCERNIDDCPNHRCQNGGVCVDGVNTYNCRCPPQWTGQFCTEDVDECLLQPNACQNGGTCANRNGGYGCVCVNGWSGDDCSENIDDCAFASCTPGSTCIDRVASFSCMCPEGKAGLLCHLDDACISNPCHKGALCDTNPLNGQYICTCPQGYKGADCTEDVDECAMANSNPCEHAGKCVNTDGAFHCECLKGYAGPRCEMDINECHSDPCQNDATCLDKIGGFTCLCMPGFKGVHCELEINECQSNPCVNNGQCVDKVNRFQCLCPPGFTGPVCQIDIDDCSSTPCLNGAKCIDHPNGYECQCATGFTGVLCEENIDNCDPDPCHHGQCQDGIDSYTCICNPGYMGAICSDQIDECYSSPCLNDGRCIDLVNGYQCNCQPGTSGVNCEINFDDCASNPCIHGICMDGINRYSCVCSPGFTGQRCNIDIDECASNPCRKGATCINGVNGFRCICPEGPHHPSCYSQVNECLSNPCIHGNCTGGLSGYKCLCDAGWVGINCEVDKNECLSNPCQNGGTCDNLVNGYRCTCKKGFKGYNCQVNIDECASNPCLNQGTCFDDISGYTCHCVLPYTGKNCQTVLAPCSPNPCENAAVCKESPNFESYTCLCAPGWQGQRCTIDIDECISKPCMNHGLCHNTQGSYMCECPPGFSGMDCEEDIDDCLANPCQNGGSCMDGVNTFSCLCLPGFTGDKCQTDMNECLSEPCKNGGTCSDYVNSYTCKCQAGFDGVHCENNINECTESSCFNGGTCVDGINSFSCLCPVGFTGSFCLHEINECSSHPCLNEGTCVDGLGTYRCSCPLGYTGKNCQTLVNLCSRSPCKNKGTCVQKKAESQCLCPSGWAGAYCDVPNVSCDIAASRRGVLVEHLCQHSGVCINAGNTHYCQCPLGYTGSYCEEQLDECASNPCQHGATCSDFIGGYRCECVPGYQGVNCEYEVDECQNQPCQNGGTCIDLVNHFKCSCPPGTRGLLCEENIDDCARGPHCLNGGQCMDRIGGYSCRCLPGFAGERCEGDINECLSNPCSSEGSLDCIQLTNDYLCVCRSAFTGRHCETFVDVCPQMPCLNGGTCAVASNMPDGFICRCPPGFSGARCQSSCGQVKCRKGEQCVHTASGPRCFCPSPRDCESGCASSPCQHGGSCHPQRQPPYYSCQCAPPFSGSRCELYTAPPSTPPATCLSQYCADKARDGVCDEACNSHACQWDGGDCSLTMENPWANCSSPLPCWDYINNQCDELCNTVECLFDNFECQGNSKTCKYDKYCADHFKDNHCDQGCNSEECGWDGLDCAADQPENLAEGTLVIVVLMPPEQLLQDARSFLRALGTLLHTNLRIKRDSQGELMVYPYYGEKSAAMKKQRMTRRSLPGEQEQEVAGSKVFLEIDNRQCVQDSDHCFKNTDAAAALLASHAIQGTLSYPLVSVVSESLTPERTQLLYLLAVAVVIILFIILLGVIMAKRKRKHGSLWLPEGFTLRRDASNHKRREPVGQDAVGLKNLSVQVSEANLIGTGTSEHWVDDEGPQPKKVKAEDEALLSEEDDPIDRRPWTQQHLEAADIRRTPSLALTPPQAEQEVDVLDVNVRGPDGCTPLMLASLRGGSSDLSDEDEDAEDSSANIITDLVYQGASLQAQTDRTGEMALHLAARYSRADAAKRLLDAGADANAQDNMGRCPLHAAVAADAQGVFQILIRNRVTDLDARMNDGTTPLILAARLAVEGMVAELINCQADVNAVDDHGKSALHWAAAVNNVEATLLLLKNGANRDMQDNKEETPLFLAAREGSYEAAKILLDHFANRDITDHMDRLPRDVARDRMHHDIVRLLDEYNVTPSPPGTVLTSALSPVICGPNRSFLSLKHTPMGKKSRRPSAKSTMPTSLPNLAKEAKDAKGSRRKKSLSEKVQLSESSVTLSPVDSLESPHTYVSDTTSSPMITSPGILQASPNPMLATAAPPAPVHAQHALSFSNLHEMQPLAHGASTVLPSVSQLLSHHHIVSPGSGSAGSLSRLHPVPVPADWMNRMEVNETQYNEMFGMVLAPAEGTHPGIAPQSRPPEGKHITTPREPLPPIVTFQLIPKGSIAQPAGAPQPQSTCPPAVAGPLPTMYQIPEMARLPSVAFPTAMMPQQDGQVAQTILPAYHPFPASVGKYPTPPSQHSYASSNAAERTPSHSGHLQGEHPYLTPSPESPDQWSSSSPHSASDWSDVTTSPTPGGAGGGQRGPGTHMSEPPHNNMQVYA
Description: as §3

Notch1 (EGF6-13), sequence (P46531 257-526 limits assumed): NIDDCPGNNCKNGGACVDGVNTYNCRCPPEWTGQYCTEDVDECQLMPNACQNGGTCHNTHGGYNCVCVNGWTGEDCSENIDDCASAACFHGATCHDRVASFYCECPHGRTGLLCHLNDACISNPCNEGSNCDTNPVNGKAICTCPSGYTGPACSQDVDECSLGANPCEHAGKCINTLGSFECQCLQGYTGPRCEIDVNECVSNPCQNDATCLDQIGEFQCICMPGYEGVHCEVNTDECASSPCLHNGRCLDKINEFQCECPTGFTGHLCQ

B1: Delta^MAX: engineered human DLL4 consensus variant with 10 mutations combining DLL4.v1 and DLL4.v2 mutations; sequence matches SEQ ID NO: 4/10 (protein)
chain: SSVFQLQLQEFINERGVLASGRPCEPGCRTFFRVCLKHFQAVVSPGPCTFGTVSTPVLGTNSFAVRDDSSGGGRNPLQLPLNFTWPGTFSLIIEAWHAPGDDLRPEALPPDALISKFAIQGSLAVGQNWLLDEQTSTLTRLRYSYRVICSDNYYGDNCSRLCKKRNDYFGHYVCQPDGNPSCLPGWTGEYCQQPICLSGCHEQNGYCSKPAECLCRPGWQGRLCNECIPHPGCRHGTCSTPWQCLCDEGWGGLYCDQDLNYCTHHSPCKNGATCRNSGPRSYTCTCRPGYTGVDCELELSECDSNPCRNGGSCKDQEDGYHCLCPPGYYGLHCEHSTLSCADSPCFNGGSCRERNQGANYACECPPNFTGSNCE
enhancement of affinity compared to WT DLL4 (Notch1 (EGF6-13); Notch1): 1,029 fold
Kd (Notch1 (EGF6-13); SPR, 25° C., ligand N-EGF5, read-out: dissociation constant (KD)): 24 nM
off-rate from fitted SPR sensograms (Notch1 (EGF6-13); series DLL4.v1, DLL4.v2, Delta^MAX, FIG. 2C Notch1 EGF6-13): progressive decreases in off-rate
binding affinity compared to WT DLL4 (Notch1 (EGF6-13); stated for all four human Notch receptors (Notch1-4)): enhanced affinity
Emax of signaling vs WT DLL4 (Notch1 [1]): ~2 fold
Notch2 activation compared to unstimulated cells (Notch2 [2]): significant level of Notch2 activation
Emax of signaling vs WT DLL4 (Notch3 [3]): ~2 fold
effect of soluble competitor on Notch1 signaling (Notch1 [4]): dose-dependent decreases
effect of soluble competitor on Notch2 signaling (Notch2 [5]): dose-dependent decreases
effect of soluble competitor on Notch3 signaling (Notch3 [6]): dose-dependent decreases
Notch1 activation (cleaved ICD) relative to WT DLL4 (Notch1 [7]): increased
Notch2 activation (cleaved ICD) relative to WT DLL4 (Notch2 [8]): increased
